Paper PMC8018910

Tests used:
Human IL-18 (human) [1] = target: Human IL-18 (human) (UniProt Q14116)
Human IL-18 (human) [2] = target: Human IL-18 (human) (UniProt Q14116); conditions: cited from earlier work

Human IL-18 (human), sequence (Q14116 37-193): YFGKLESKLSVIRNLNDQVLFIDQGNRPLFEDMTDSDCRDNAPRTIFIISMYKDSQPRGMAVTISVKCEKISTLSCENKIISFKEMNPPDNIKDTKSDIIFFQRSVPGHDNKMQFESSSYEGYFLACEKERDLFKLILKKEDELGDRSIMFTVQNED
Clinical-grade recombinant human IL-18BP, sequence (O95998 31-194): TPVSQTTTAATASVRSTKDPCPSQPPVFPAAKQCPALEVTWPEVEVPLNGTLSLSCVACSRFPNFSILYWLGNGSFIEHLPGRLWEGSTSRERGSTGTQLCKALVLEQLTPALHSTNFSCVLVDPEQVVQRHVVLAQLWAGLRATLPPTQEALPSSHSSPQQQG
IL-18BP, sequence (O95998 31-194): as above

| reduction of IL-12/IL-18-induced IFNγ production in human PBMC cultures by IL-18BP (24 h) (Human IL-18 (human) [1]) [%] | reduction of IL-12/IL-18-induced IL-6 release in human PBMC cultures by IL-18BP (24 h) (Human IL-18 (human) [1]) [%] | Substance | Kd (Human IL-18 (human) [2]) [nM] |
| --- | --- | --- | --- |
| 95 | 85 | Clinical-grade recombinant human IL-18BP (from UniProt O95998 31-194) (natural protein) | – |
| – | – | IL-18BP (from UniProt O95998) | 0.5 |
